Measured values as given in patent US20220259281A1 (SHATTUCK LABS, published 2022).

Assays:
[1] = target: T1, universal-heterologous chimeric protein specific anti-Fc antibody; assay: sandwich ELISA: capture by anti-Fc antibody, detection by biotinylated anti-human OX40L antibody; concentrated culture media, the protein concentration in it is not given so the x values are nominal; the fitted value lies beyond the highest point shown (log about 2.8), nM is from the x axis
anti-human PD-1 antibody = assay: MSD dual binding assay; Coat: anti-hPD1, Detect: anti-hOX40L; 3-fold dilution series drawn as bars
Procedure: Concentrated, de-salted culture supernatant was prepared as follows: 40 million Jurkat parental cells, Jurkat cells expressing human PD-1-Fc-4-1BBL chimeric protein (Jurkat/hPD-1-Fc-4-1BBL), Jurkat cells expressing human PD-1-Fc-OX40L chimeric protein (Jurkat/hPD-1-Fc-OX40L), or Jurkat cells expressing human CSF1R-Fc-CD40L chimeric protein (Jurkat/hCSF1R-Fc-CD40L) were cultured in 60 mL of media for 48 hours. After this, the media were harvested and concentrated 50-75× using AMICON-15 50K columns. Concentrated supernatant was desalted over a ZEBA desalting column or directly dialyzed in PBS and used in experiments. The resulting supernatant was also termed “neat” supernatant.
The PD-1-Fc-OX40L chimeric protein harbors the extracellular domain of PD-1 protein domain at or near the N-terminus and the extracellular domain of OX40 Ligand (OX40L) protein domain at or near the C-terminus. To understand whether the extracellular domains of PD-1 and OX40L can simultaneously bind to respective antibodies, an anti-human PD-1 antibody was coated on a plate. Three-fold serial dilutions neat culture supernatants of Jurkat parental cells or Jurkat/hPD-1-Fc-OX40L cells were added to the plate. […] The plate was incubated to allow capture of any protein by the plate-bound anti-human PD-1 antibody. […] Binding was detected using the MSD platform.

human PD-L1 = target: T2, human PD-L1 (human, UniProt Q9NZQ7 19-290); assay: flow cytometry binding to CHOK1/hPDL1 cells; supernatant as % of total reaction volume
T2 construct: whole, on cells; also called hPD-L1; PD-L1 on CHO-K1/hPD-L1 cells
T2 sequence (Q9NZQ7 19-290): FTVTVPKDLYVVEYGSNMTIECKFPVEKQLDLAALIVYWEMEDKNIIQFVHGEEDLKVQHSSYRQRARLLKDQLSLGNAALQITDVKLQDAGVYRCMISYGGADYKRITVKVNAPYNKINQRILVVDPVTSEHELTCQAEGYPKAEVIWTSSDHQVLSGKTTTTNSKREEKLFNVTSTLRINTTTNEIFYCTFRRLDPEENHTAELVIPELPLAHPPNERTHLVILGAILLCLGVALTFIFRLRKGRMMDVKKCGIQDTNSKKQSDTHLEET
Procedure: (§1) In another experiment, the CHO-K1/hPD-L1 cells were incubated with increasing amounts of the neat culture supernatant of the Jurkat parental or Jurkat/hPD-1-Fc-OX40L cells produced as discussed in Example 2. Binding was detected using flow cytometry and the MFI was calculated and plotted as a function of the amount of the neat culture supernatant of Jurkat parental or Jurkat/hPD-1-Fc-OX40L cells. […] Further, the CHO-K1/hOX40 cells were incubated with increasing amounts of the neat culture supernatant of the Jurkat parental or Jurkat/hPD-1-Fc-OX40L cells produced as discussed in Example 2. Binding was detected using flow cytometry and the MFI was calculated and plotted as a function of the amount of the neat culture supernatant of Jurkat parental or Jurkat/hPD-1-Fc-OX40L cells.

human OX40 = target: T3, human OX40 (human, UniProt P43489 29-277); assay: flow cytometry binding to CHOK1/hOX40 cells; supernatant as % of total reaction volume
T3 construct: whole, on cells; also called hOX40; OX40 on CHO-K1/hOX40 cells
T3 sequence (looked up): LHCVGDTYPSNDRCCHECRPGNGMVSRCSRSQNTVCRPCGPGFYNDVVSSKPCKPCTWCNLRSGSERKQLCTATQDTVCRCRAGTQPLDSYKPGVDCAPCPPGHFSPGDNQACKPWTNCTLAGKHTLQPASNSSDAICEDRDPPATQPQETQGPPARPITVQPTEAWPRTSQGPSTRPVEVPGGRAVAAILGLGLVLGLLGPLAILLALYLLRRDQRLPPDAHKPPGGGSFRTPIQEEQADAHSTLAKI
Procedure: as §1

[2] = target: T1, universal-heterologous chimeric protein …; assay: sandwich ELISA: capture by anti-Fc antibody, detection by biotinylated anti-human OX40L antibody; Abs450nm against log[Agonist], nM, nM is from the x axis

EC50 [1]: 2690 nM | EC50 (read off the curve) (anti-human PD-1 antibody): ~0.08 µg/mL | binding result (human PD-L1): binds | binding result (human OX40): binds | EC50 [2]: 37.3 nM
B1: human PD-1-Fc-OX40L heterologous chimeric protein (Fc fusion)
chain: LDSPDRPWNPPTFSPALLVVTEGDNATFTCSFSNTSESFVLNWYRMSPSNQTDKLAAFPEDRSQPGQDCRFRVTQLPNGRDFHMSVVRARRNDSGTYLCGAISLAPKAQIKESLRAELRVTERRAEVPTAHPSPSPRPAGQFQSKYGPPCPPCPAPEFLGGPSVFLFPPKPKDQLMISRTPEVTCVVVDVSQEDPEVQFNWYVDGVEVHNAKTKPREEQFNSTYRVVSVLTVLHQDWLSGKEYKCKVSSKGLPSSIEKTISNATGQPREPQVYTLPPSQEEMTKNQVSLTCLVKGFYPSDIAVEWESNGQPENNYKTTPPVLDSDGSFFLYSRLTVDKSRWQEGNVFSCSVLHEALHNHYTQKSLSLSLGKIEGRMDQVSHRYPRIQSIKVQFTEYKKEKGFILTSQKEDEIMKVQNNSVIINCDGFYLISLKGYFSQEVNISLHYQKDEEPLFQLKKVRSVNSLMVASLTYKDKVYLNVTTDNTSLDDFHVNGGELILIHQNPGEFCVL
notes: Tested as secreted protein in Jurkat supernatant and as purified protein; also called hPD-1-Fc-OX40L; hPD1-Fc-OX40L
